For assay [1], the target named is T1, Human Activin A-Fc (human).
T1 chain: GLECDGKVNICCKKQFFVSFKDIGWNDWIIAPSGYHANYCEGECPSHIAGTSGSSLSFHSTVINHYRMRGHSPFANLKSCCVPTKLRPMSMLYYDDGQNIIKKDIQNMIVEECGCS
The assay can be described thus: BLI, bivalent. For orientation: BLI is a label-free optical method that tracks binding on a fibre tip over time.

In the next assay the target is T2, BMP9 (UniProt Q9UK05).
T2 chain: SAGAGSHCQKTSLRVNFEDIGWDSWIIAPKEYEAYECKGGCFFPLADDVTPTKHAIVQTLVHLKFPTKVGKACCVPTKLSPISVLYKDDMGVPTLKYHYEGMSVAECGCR
Kind of assay: BLI, bivalent.

Assay [2] concerns the target T3, Human GDF11 (human, UniProt O95390).
T3 chain: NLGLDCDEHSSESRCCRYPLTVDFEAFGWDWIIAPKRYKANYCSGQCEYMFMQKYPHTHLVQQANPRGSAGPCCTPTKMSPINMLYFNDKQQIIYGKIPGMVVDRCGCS
Kind of assay: BLI, bivalent.

In a further assay the target is T4, Human Activin B (human).
T4 chain: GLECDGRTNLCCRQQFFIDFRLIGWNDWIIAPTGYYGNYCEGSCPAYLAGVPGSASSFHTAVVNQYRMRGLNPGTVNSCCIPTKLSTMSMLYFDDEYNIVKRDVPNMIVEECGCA
Kind of assay: BLI, bivalent.

In the next assay the target is T5, Human GDNF (human, UniProt P39905).
T5 chain: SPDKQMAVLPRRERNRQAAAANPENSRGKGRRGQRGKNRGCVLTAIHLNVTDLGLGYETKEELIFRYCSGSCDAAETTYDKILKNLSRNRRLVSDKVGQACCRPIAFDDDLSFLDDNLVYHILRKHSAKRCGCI
The assay can be described thus: BLI, bivalent.

In a further assay the target is T6, Human Follistatin 300 (human, UniProt P19883).
T6 chain: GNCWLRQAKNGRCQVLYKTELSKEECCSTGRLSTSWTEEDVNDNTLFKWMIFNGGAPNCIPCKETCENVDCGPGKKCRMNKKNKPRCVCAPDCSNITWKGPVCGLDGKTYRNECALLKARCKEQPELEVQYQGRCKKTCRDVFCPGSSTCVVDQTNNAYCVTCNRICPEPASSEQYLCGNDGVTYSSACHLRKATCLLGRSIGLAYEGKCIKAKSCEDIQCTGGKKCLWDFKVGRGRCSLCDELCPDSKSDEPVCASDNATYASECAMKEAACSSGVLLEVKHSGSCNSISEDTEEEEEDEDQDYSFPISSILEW
Kind of assay: BLI, bivalent.

The target in another assay is T7, BMP10 (UniProt O95393).
T7 chain: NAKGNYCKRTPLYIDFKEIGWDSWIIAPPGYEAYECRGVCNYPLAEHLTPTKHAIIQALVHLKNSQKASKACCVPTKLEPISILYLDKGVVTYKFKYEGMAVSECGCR
The assay can be described thus: BLI, bivalent.

A further assay deals with Human GDF8 (human, UniProt O14793). Kind of assay: BLI, bivalent.
The target of another assay is T8, GDF15-Fc (UniProt Q99988).
T8 chain: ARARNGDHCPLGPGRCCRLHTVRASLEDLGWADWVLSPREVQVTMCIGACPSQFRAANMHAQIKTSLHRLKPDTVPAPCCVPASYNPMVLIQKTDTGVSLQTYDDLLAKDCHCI
The assay can be described thus: BLI, bivalent.

For assay [3], the target named is T9, Human GDF10 (human, UniProt P55107).
T9 chain: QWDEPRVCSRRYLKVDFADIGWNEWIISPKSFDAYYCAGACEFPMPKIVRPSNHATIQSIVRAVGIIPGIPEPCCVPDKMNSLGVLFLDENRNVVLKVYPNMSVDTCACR
The assay can be described thus: BLI, bivalent.

Assay [4] concerns the target T10, Human Activin A (biotinylated) (human).
T10 chain: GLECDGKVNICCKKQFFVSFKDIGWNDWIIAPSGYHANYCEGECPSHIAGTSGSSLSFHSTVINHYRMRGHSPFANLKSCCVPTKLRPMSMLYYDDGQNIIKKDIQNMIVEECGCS
The assay can be described thus: SPR, 25C, monovalent.

Assay [5] concerns the target T1, Human Activin A-Fc. Kind of assay: BLI, monovalent.
Assay [6] has as its target T9, Human GDF10. Kind of assay: BLI, bivalent.
Assay [7] concerns the target T3, Human GDF11. Kind of assay: BLI, bivalent.

This note sets out measurements from patent US20260285962 (published 2026).

Chain of Human GDF8 (O14793 267-375): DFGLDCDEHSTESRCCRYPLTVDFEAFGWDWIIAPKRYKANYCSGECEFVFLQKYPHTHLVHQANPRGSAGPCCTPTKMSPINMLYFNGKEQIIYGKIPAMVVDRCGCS

B1: Clone B IgG (antibody, V domains shown)
VH: QLQLQESGPGLVKPSETLSLTCTVSGGSISSQQYYWGWIRQPPGKGLEWIGSISYAASTYYNPSLKSRVTISVDTSKNQFSLKLSSVTAADTAVYYCAREGYDSYSYDVWGQGTMVTVSS
VL: EIVLTQSPATLSVSPGERATLSCRASQSVGSNLAWYQQKPGQAPRLLIYGASTRATGIPARFSGSGSGTEFTLTISSLQSEDFAVYYCQQYNFYPPITFGGGTKVEIK
Turning to B1, the Kd stood at 0.545 nM with Human Activin A-Fc [1] and 0.766 nM with Human Activin B. The binding result with BMP9, with Human GDF11 [2], in the assay with Human GDNF, with Human Follistatin 300, in the assay with BMP10 and with Human GDF8 was “no binding” each time. Besides, the binding result with GDF15-Fc and with Human GDF10 [3] was “no binding” in each case.

B2: Clone A Fab (antibody, V domains shown)
VH: QLQLQESGPGLVKPSETLSLTCTVSGGSISSSSYYWGWIRQPPGKGLEWIGSISYSGSTYYNPSLKSRVTISVDTSKNQFSLKLSSVTAADTAVYYCAREGYDSYSYDVWGQGTMVTVSS
VL: EIVLTQSPATLSVSPGERATLSCRASQSVGSNLAWYQQKPGQAPRLLIYGASTRATGIPARFSGSGSGTEFTLTISSLQSEDFAVYYCQQYNFYPPITFGGGTKVEIK
B2: the values for the Kd (in [4]; in the assay with Human Activin A-Fc [5]) were 1.64 nM and 3.55 nM, respectively.

B3: Clone A IgG (antibody, V domains shown)
VH: QLQLQESGPGLVKPSETLSLTCTVSGGSISSSSYYWGWIRQPPGKGLEWIGSISYSGSTYYNPSLKSRVTISVDTSKNQFSLKLSSVTAADTAVYYCAREGYDSYSYDVWGQGTMVTVSS
VL: EIVLTQSPATLSVSPGERATLSCRASQSVGSNLAWYQQKPGQAPRLLIYGASTRATGIPARFSGSGSGTEFTLTISSLQSEDFAVYYCQQYNFYPPITFGGGTKVEIK
For B3, the Kd is 0.661 nM with Human Activin A-Fc [1] and 0.76 nM with Human Activin B. Also, the binding result with BMP9, with Human GDF11 [2], with Human GDNF, with Human Follistatin 300, with BMP10 and with Human GDF8 was “no binding” throughout. The binding result with GDF15-Fc and with Human GDF10 [3] was “no binding” throughout.

B4: Clone B Fab (antibody, V domains shown)
VH: QLQLQESGPGLVKPSETLSLTCTVSGGSISSQQYYWGWIRQPPGKGLEWIGSISYAASTYYNPSLKSRVTISVDTSKNQFSLKLSSVTAADTAVYYCAREGYDSYSYDVWGQGTMVTVSS
VL: EIVLTQSPATLSVSPGERATLSCRASQSVGSNLAWYQQKPGQAPRLLIYGASTRATGIPARFSGSGSGTEFTLTISSLQSEDFAVYYCQQYNFYPPITFGGGTKVEIK
With B4, the Kd was found to be 0.903 nM in [4] and 2.1 nM in the assay with Human Activin A-Fc [5].

B5: Clone C IgG (antibody, V domains shown)
VH: QLQLQESGPGLVKPSETLSLTCTVSGGSISSYDPYWGWIRQPPGKGLEWIGSISYSGSTLYNPSLKSRVTISVDTSKNQFSLKLSSVTAADTAVYYCAREVSYLGSRRYGMDVWGQGTTVTVSS
VL: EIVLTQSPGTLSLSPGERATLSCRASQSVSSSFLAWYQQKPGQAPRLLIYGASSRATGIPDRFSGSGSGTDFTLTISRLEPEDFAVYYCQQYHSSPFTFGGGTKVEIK
On to B5, for which the Kd worked out at 0.552 nM with Human Activin A-Fc [1], 0.861 nM in the assay with Human Activin B, 25.8 nM with Human GDF10 [6] and 8.41 nM in the assay with Human GDF11 [7]. Further, the binding result with BMP9, with Human GDNF, in the assay with Human Follistatin 300, with BMP10, in the assay with Human GDF8 and with GDF15-Fc was “no binding” throughout.

B6: Clone C Fab (antibody, V domains shown)
VH: QLQLQESGPGLVKPSETLSLTCTVSGGSISSYDPYWGWIRQPPGKGLEWIGSISYSGSTLYNPSLKSRVTISVDTSKNQFSLKLSSVTAADTAVYYCAREVSYLGSRRYGMDVWGQGTTVTVSS
VL: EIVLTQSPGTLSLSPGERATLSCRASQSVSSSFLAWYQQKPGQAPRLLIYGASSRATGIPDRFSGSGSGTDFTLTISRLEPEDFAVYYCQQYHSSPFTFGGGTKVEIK
In the case of B6, the Kd in [4] was 0.0832 nM; with Human Activin A-Fc [5], 0.963 nM.
